Experimental data published in patent US20240400697A1 (NATIONAL RESEARCH COUNCIL OF CANADA, published 2024).
Residue numbers refer to the chain shown, from its start. Numbers in names are those of the source.

Legend:
[1] = molecular target: epidermal growth factor receptor variant III (EGFRvIII) (human) (UniProt P00533); assay: flow cytometry on U87MG-EGFRvIII cells, apparent KD (KD-app), mean of several experiments
[2] = molecular target: T1, wild-type epidermal growth factor receptor (EGFR wt) (human, UniProt P00533 25-1210); assay: flow cytometry on U87MG-EGFR wt cells
T1 construct: whole, on cells; also called wt EGFR; WT EGFR
Procedure: Cells overexpressing full length wt EGFR or EGFRvIII were obtained from the laboratory of W. Cavanee (Ludwig Institute for Cancer Research, University of California at San Diego). Cells were grown in DMEM high glucose medium containing 10% FBS and 400 μg/ml G418.
Prior to analysis, cells were plated such that they were not more than 80% confluent on the day of analysis. Unless otherwise stated, all media are kept are 4° C. and all incubations are performed on wet ice. Cells were washed in PBS, harvested by the addition of cell dissociation buffer (Sigma), centrifuged and resuspended in complete medium at a cell density of 2×10⁶ cells/mL. […] Cells were washed twice by centrifugation and further incubated with a FITC labeled F(ab′)₂ goat anti-mouse antibody (Fc specific, #115-096-071, Jackson Immunoresearch, Cedarlane) for an hour. Cells were washed and re-suspended in medium containing Propidium iodide to exclude dead cells from analysis. Samples were filtered through a 60 μm nylon mesh filter plate (Millipore) to remove cell aggregates. Flow cytometry analyses were performed on 2,000 viable single-cells events gated on forward scattering, side scattering parameters and propidium iodide dye exclusion using a BD-LSRFortessa flow cytometer (Becton-Dickinson Biosciences) and a standard filter set using BD FACSDiva™ acquisition software, according to manufacturer's instructions.

B1: humanized 4E11 antibody hH2-hL2 (antibody, human IgG4 S228P, kappa, V domains shown)
VH: QVQLQESGPGLVKPSQTLSLTCTVSGYSITSDYAWNWIRQPPGKGLEWIGYIGYNGRTSYNPSLKSRVTISRDTSKNQFSLKLSSVTAADTAVYYCARLGRGFAYWGQGTLVTVSS
VL: DIQMTQSPSSLSASVGDRVTITCHASQGINSNIGWLQQKPGKAPKGLIYHGTNLEDGVPSRFSGSGSGTDYTLTISSLQPEDFATYYCVQYAQFPYTFGQGTKLEIKR
[1]
  Kd: 10.5 nM

B2: humanized 4E11 antibody hH3-hL2 (antibody, human IgG4 S228P, kappa, V domains shown)
VH: B1 VH with I49M, V68I
VL: B1 VL
notes: Human IgG4(S228P), C-terminal Lys deleted, human kappa; made in CHO cells; 16) for this name; 17
[2]
  Bmax @ 300 nM (MFI): 160 MFI
[1]
  Kd: 7.9 nM

B3: humanized 4E11 antibody hH2-hL1 (antibody, human IgG4 S228P, kappa, V domains shown)
VH: B1 VH
VL: B1 VL with L36Y, G46L
notes: Human IgG4(S228P), C-terminal Lys deleted, human kappa; made in CHO cells; 16) for this name; 16
[2]
  Bmax @ 300 nM (MFI): 319 MFI
[1]
  Kd: 5.8 nM

B4: humanized 4E11 antibody hH2-hL3 (antibody, human IgG4 S228P, kappa, V domains shown)
VH: B1 VH
VL: B1 VL with P44F
notes: Human IgG4(S228P), C-terminal Lys deleted, human kappa; made in CHO cells; 17) for this name; 18
[2]
  Bmax @ 300 nM (MFI): 1420 MFI
[1]
  Kd: 7.2 nM

B5: humanized 4E11 antibody hH3-hL1 (antibody, human IgG4 S228P, kappa, V domains shown)
VH: B1 VH with I49M, V68I
VL: B1 VL with L36Y, G46L
notes: Human IgG4(S228P), C-terminal Lys deleted, human kappa; made in CHO cells; 18) for this name; 16
[2]
  Bmax @ 300 nM (MFI): 164 MFI
[1]
  Kd: 4.9 nM

B6: humanized 4E11 antibody hH3-hL3 (antibody, human IgG4 S228P, kappa, V domains shown)
VH: B1 VH with I49M, V68I
VL: B1 VL with P44F
notes: as for B4
[2]
  Bmax @ 300 nM (MFI): 1370 MFI
[1]
  Kd: 7.1 nM

B7: humanized 4E11 antibody hH1-hL1 (antibody, human IgG4 S228P, kappa, V domains shown)
VH: B1 VH with R72V
VL: B1 VL with L36Y, G46L
[1]
  Kd: 9.7 nM

B8: humanized 4E11 antibody hH1-hL2 (antibody, human IgG4 S228P, kappa, V domains shown)
VH: B1 VH with R72V
VL: B1 VL
[1]
  Kd: 23 nM

B9: humanized 4E11 antibody hH1-hL3 (antibody, human IgG4 S228P, kappa, V domains shown)
VH: B1 VH with R72V
VL: B1 VL with P44F
[1]
  Kd: 15.7 nM

B10: chimeric 4E11 antibody cH-cL (antibody, human IgG4 S228P, kappa, V domains shown)
VH: DVQLQESGPGLVKPSQSLSLTCTVTGYSITSDYAWNWIRQFPGNKLEWMGYIGYNGRTSYNPSLKSRISITRDTSKNQFFLQLNYVTTEDTATFYCARLGRGFAYWGQGTLVTVSA
VL: DILMTQSPSSMSVSLGDTVSITCHASQGINSNIGWLLQKPGKSFKGLIYHGTNLEDGVPSRFSGSGSGTDYSLTISSLESEDFADYYCVQYAQFPYTFGGGTKLEIKR
notes: Murine 4E11 V regions on human IgG4(S228P) heavy chain, C-terminal Lys deleted, and human kappa light chain; made in CHO cells; also called chimeric variant
[2]
  Bmax @ 300 nM (MFI): 525 MFI
